In assay [1] the target is human recombinant RetGC1 (retinal membrane guanylyl cyclase 1) (human) (UniProt Q02846).
Assay [2] has the same target. The source holds these as a separate data set.

Sequence of UniProt Q02846 (Q02846 52-1103): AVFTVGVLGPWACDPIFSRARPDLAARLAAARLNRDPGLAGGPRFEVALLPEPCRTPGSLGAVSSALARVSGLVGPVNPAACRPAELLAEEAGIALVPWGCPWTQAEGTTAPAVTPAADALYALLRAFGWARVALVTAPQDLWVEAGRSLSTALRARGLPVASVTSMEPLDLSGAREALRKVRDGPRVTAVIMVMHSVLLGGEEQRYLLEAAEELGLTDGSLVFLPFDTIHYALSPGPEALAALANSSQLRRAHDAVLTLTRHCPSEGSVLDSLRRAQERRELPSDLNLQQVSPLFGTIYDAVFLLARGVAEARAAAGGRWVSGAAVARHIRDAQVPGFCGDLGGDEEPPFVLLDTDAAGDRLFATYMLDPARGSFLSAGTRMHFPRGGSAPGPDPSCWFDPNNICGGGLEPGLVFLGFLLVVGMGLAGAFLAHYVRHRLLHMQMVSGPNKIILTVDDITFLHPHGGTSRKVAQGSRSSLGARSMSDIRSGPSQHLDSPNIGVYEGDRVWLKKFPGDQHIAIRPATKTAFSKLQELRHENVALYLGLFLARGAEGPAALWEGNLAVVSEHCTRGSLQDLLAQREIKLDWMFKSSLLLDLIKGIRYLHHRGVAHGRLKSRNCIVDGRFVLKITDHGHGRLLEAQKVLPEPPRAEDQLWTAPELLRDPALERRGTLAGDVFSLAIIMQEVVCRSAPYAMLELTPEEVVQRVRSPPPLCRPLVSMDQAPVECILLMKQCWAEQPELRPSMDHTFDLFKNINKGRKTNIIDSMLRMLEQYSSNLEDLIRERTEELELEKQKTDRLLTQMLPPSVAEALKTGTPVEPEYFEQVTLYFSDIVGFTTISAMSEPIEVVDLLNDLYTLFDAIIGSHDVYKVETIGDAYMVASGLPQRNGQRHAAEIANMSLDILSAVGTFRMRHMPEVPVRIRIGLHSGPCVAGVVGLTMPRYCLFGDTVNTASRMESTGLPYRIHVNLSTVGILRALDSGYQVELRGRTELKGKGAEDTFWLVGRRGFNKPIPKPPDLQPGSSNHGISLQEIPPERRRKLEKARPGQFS

B1: purified myristoylated bovine GCAP1 (guanylyl cyclase activating protein 1) (natural protein)
chain: MGNIMDGKSVEELSSTECHQWYKKFMTECPSGQLTLYEFRQFFGLKNLSPWASQYVEQMFETFDFNKDGYIDFMEYVAALSLVLKGKVEQKLRWYFKLYDVDGNGCIDRDELLTIIRAIRAINPCSDSTMTAEEFTDTVFSKIDVNGDGELSLEEFMEGVQKDQMLLDTLTRSLDLTRIVRRLQNGEQDEEGASGRETEAAEADG
modifications: N-myristoylated
Take B1: in assay [1], the K1/2 of GCAP1 for activating the guanylyl cyclase activity of recombinant RetGC1, with additional 50 mM NaCl instead of bicarbonate (pilot measurement, not shown) worked out at 2 µM. In assay [2], the K1/2 of GCAP1 for activating the guanylyl cyclase activity of recombinant RetGC1 in HEK293 membranes (hyperbolic fit, 0-10 μM GCAP1), with 50 mM NaHCO3 was 2.9 µM and the K1/2 of GCAP1 for activating the guanylyl cyclase activity of recombinant RetGC1 in HEK293 membranes (hyperbolic fit, 0-10 μM GCAP1), without NaHCO3 was 1.47 µM.
